Values belong to the binder of their own block, whether it stands above or below them.
How the values were obtained:
[1] = biological target: the molecule itself; assay: AUC; sedimentation velocity, SEC buffer, 20 °C, 42 000 rpm; P-PI4KB alone (20 µM) and with Rab11; stoichiometries independent of Rab11 nucleotide state
pseudo-wt PI4KB = biological target: T1, pseudo-wt PI4KB (human, UniProt Q9UBF8 1-816, internal deletion of a disordered loop (residues 423-522)); assay: SAXS; ACBD3 and pseudo-wt PI4KB mixed 1:1, dialyzed against 20 mM Tris pH 8, 200 mM NaCl, 2 mM TCEP, 1% glycerol; 3.0 and 4.5 mg/ml; details: both partners purified
T1 construct: phosphatidylinositol 4-kinase IIIβ (PI4KB) with intact N-terminus, containing only the internal deletion (residues 423-522)

[2] = biological target: T2, pseudo-wt PI4KB labeled with Atto488 (human, UniProt Q9UBF8 1-816, internal deletion of a disordered loop (residues 423-522), Atto488 (maleimide labelling)); assay: GUV recruitment (confocal microscopy); ACBD3 tethered to GUVs with DGS-NTA(Ni); Atto488-PI4KB and mCherry-Rab11 in solution, each approximately 50 nM; details: both partners purified
T2 construct: phosphatidylinositol 4-kinase IIIβ (PI4KB) with intact N-terminus, containing only the internal deletion (residues 423-522); also called Atto488 labeled PI4KB; wild type PI4KB
T2 sequence (Q9UBF8 other isoform, or with tags, fused parts or gaps with the stated changes): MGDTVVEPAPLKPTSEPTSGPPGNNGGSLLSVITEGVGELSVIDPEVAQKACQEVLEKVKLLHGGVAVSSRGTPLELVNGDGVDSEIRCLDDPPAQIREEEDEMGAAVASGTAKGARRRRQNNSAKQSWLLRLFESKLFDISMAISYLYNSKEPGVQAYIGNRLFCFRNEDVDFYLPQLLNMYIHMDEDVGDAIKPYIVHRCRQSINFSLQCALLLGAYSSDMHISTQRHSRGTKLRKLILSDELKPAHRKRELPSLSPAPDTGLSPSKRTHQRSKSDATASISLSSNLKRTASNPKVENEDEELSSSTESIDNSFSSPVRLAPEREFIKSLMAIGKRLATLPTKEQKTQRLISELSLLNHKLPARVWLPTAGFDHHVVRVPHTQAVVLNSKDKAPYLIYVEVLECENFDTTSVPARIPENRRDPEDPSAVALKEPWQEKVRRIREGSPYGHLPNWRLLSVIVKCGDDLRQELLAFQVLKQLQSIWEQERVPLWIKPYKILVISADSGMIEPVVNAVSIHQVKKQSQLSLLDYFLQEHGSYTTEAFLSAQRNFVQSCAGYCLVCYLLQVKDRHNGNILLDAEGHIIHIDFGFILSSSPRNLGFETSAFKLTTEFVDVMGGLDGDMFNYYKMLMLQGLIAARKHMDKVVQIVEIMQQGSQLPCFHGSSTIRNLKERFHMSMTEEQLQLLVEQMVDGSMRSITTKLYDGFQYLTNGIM

T1 sequence (Q9UBF8 other isoform, or with tags, fused parts or gaps with the stated changes): as above

B1: phosphorylated PI4KB (residues 128-799, internal deletion 423-522, T292R, phosphorylated at S294 by PKA) (enzyme, human, UniProt Q9UBF8 128-799, looked up)
chain: SWLLRLFESKLFDISMAISYLYNSKEPGVQAYIGNRLFCFRNEDVDFYLPQLLNMYIHMDEDVGDAIKPYIVHRCRQSINFSLQCALLLGAYSSDMHISTQRHSRGTKLRKLILSDELKPAHRKRELPSLSPAPDTGLSPSKRTHQRSKSDATASISLSSNLKRRASNPKVENEDEELSSSTESIDNSFSSPVRLAPEREFIKSLMAIGKRLATLPTKEQKTQRLISELSLLNHKLPARVWLPTAGFDHHVVRVPHTQAVVLNSKDKAPYLIYVEVLECENFDTTSVPARIPENRRDPEDPSAVALKEPWQEKVRRIREGSPYGHLPNWRLLSVIVKCGDDLRQELLAFQVLKQLQSIWEQERVPLWIKPYKILVISADSGMIEPVVNAVSIHQVKKQSQLSLLDYFLQEHGSYTTEAFLSAQRNFVQSCAGYCLVCYLLQVKDRHNGNILLDAEGHIIHIDFGFILSSSPRNLGFETSAFKLTTEFVDVMGGLDGDMFNYYKMLMLQGLIAARKHMDKVVQIVEIMQQGSQLPCFHGSSTIRNLKERFHMSMTEEQLQLLVEQMVDGSMRS
modifications: phosphoserine at 294 (in vitro by protein kinase A)
notes: phosphatidylinositol 4-kinase IIIβ (PI4KB), residues 128-799 with internal deletion of a disordered loop (residues 423-522) and T292R; also called P-PI4KB; phosphatidylinositol 4-kinase IIIβ; source: phosphorylated in vitro by PKA; Mono Q, SEC
stoichiometry N [1]: 2

binding result (pseudo-wt PI4KB): binds
B2: ACBD3 (Acyl-CoA-binding domain-containing protein), tag cleaved (natural protein, UniProt Q9H3P7 1-528, looked up)
chain: MAAVLNAERLEVSVDGLTLSPDPEERPGAEGAPLLPPPLPPPSPPGSGRGPGASGEQPEPGEAAAGGAAEEARRLEQRWGFGLEELYGLALRFFKEKDGKAFHPTYEEKLKLVALHKQVLMGPYNPDTCPEVGFFDVLGNDRRREWAALGNMSKEDAMVEFVKLLNRCCHLFSTYVASHKIEKEEQEKKRKEEEERRRREEEERERLQKEEEKRRREEEERLRREEEERRRIEEERLRLEQQKQQIMAALNSQTAVQFQQYAAQQYPGNYEQQQILIRQLQEQHYQQYMQQLYQVQLAQQQAALQKQQEVVVAGSSLPTSSKVNATVPSNMMSVNGQAKTHTDSSEKELEPEAAEEALENGPKESLPVIAAPSMWTRPQIKDFKEKIQQDADSVITVGRGEVVTVRVPTHEEGSYLFWEFATDNYDIGFGVYFEWTDSPNTAVSVHVSESSDDDEEEEENIGCEEKAKKNANKPLLDEIVPVYRRDCHEEVYAGSHQYPGRGVYLLKFDNSYSLWRSKSVYYRVYYTR
notes: ACBD3 with ACBD, CAR, Q and GOLD domains; no limits of the construct are printed; not shown: His6-GB1, N-terminal, cleaved

binding result [2]: binds
B3: ACBD3 with N-terminal 6xHis-GB1 tag (for GUV reconstitution) (natural protein, UniProt Q9H3P7 1-528, looked up)
chain: B2 chain
notes: ACBD3 with ACBD, CAR, Q and GOLD domains; Tethered to GUVs that contain DGS-NTA(Ni); also called membrane tethered ACBD3; not shown: His6-GB1, N-terminal, kept
